According to the DeepSol protein solubility set:

Assay: soluble on expression in E. coli; label from the status in PepcDB or PDB records

Sequence	soluble on expression in E. coli
MATSAMFILDLKGKTIISRNYRGDIDMTAIDKFIHLLMEKEEEGSAAPVLTYQDTNFVFIKHTNIYLVSACRSNVNVTMILSFLYKCVEVFSEYFKDVEEESVRDNFVVIYELLDEMMDFGFPQTTESRILQEYITQEGQKLISAPRPPMAVTNAVSWRSEGIKYRKNEVFLDVIESVNMLASANGTVLQSEIVGSVKMRVYLTGMPELRLGLNDKVLFEGSGRGKSKSVELEDVKFHQCVRLSRFDTDRTISFIPPDGAFELMSYRLTTVVKPLIWIETSIERHSHSRVSFIIKAKSQFKRRSTANNVEIIIPVPSDADSPKFKTSIGSVKYTPEQSAFVWTIKNFPGGKEYLLTAHLSLPSVMSEESEGRPPIKVKFEIPYFTTSGIQVRYLKIIEKSGYQALPWVRYITQNGEYEMRMK	not soluble
MNVTEQNSHQILIQKLLVSIHYLTLFRDELKLVERTPSILGGEFPAHLVQSELGDIVAAIDTLDMQQRLIESTFWYEESAFKLMNKTLDIVDNWIKGVDHLIDLCQSKEVFQIIIGDKRIRVFGVLSDVFSSLKVSALSLKEAPIPDVLYEHIQRVNLEEEAFIKYYQSPKVPTGEFE	not soluble
LSYPNATESVYGLTRYSTNDEAIAGVNNESSITPAKFTVALNNVFETRVSTESSNGVIKISSLPQALAGADDTTAMTPLKTQQLAVKLIAQIAPSKNAATESEQGVIQLATVAQARQGTLREGYAISPYTFMNSTATEEYKGVIKLGTQSEVNSNNASVAVTGATLNGRGSTTSMRGVVKLTTTAGSQSGGDASSALAWNADVIHQRGGQTINGTLRINNTLTIASGGANITGTVNMTGGYIQGKRVVTQNEIDRTIPVGAIMMWAADSLPSDAWRFCHGGTVSASDCPLYASRIGTRYGGSSSNPGLPDMR	soluble
MSLTDRIRRLRQESFDTQPSLSIERALIETEFYKENEGKYPIPILRALNFLEICKRKTIYIGEDELIVGERGPRPKAVSTFPELTCHSVEDLHVLNTRELQRYTISQEDIDTYEREVIPYWKGRTQRERIFNHVPKEWKEAYEVGMFTEFMEQRAPGHTSLDGKVYQHGMLDLKERIAHELKNLDFMNDPEATDKQEELTAMSISCDAAIIFAERHAELAEKMAGQETDPKRKEELKKIAEICRWVPAHAPRTYWEAIQMYWFVHLGTITELNGWDAMNPGHFDQHLAPFYEKDLEEGILTRAEAKELMSCFFIKVNNQTAPPKVGITAKESGTYNDFTNLNIGGIKRDGSNGVSEVSYIMLETVDDLHLLQPGSALHISVCTPERFLREGCKVIRKGYGYPSVFNPDTYVMELMRQGKTPEDAREGGCSGCIEVGAFGKEAYILTGYLNVPKILEVTLHNGTDPVSGKKVGLVTGDPCTFRSYEALYDAFLKQIHYFVDMKVRVSNYIDRMFAKYAPATFLSLFIDDCIAKGKDYYNCGPRYNTSYIQCTGLGTITDSLSVLKKHVFEERKFNMEQIIHATDTNFEGQEAMRQFILNRTPFFGNDDEYADRIAIQIFNDLYDAIEGKPNTKGECFHLNMLSTTCHVYFGKMMNATPNGREGHHHHHH	soluble
RYRGSKWAGKKSIPAFIDNDYNEADQVIENLQRNELTPREIADFIGRELAKGKKKGDIAKEIGKSPAFITQHVTLLDLPEKIADAFNTGRVRDVTVVNELVTAFKKRPEEVEAWLDDDTQEITRGTVKLLREFLDEKGRDPNTVDAFNGQTDAERDAEAGDGQDGEDGDQDGKDAKEK	soluble
MSSNSPNSSNPAATDAPKKTSVEPGSEANNWHITEADEKGFKLTDMIKKLLKPVFSKAIMFDEKEIHVLLTRVFKYYTSPPNKKTAPSASASATTSMSPPKPAANALLELQAPINICGDTHGQYNDLLRIFNACGAATKTQYLFLGDYVDRGGHSLEVIMLLFSLKLAMPRKMHLLRGNHELKAINKNYGFHAELKKRFQREEVYESVYNHFNQVFSYMPLCAIVSKRILCMHGGISPHLKSLDDIRAIPLPLETAKTHPLACDLLWADPEKDAKGFEPNKIRAISNVFGKKEVDDLCKRLDIDLIVRAHQVVEYGYAFFADRRLITVFSASRYQIELCNYAAVVVVNKMLELSFVQLKPEDFEVRRDECEENAKDQTTSNVPH	not soluble
ELLPDVRLLYGETPFARTPVMYEPGIIILFSGHKIGYINERVFRYDANEYLLLTVPLPFECETYATSEVPLAGLRLNVDILQLQELLMDIGEDEHFQPSMAASGINSATLSEEILCAAERLLDVMERPLDARILGKQIIREILYYVLTGP	not soluble
MGLPAHHIDAFLDRLRTAHYSEVSLRKKRRVLCAFSGWMKHRNIDLIDLDESVTARFMKRMIDASRDRVQRARPTLRQFLAYLRAEAIVCSPTLGSQSAIAHTYRRYLDYLRQDRGLAKNSLLVYGPFIRDFLDSHSAGDGSLLPDAFDAVTIRNHLLARSKGRSAEYTRLMAVALRSFCHFLFLRGDTARDLAGSVPSVRKWRQSTVPTFLTPEQQEALIASADRSTPTGLRDYAILLLLARLGLRAGEIIEIELDDIHWRSGELVVHGKGQMVEHVPLSSEVGAAIATYLRDGRGASASRRVFLRRLAPRVGLAGPAAIGKIVCQAFARVGFRPACRGAAHLFRHGLATTMIRHGASMAEIAEVLRHRSPDSTAIYAKVAFEDLRGVARSWPTAGGAILEHHHHHH	soluble
MNTKARKYIPLTEATYYILLSLVKPMHGYGIMQLVEEMTNGEVKLGPGTLYGNTTKLLKEKLIVEVASTDRKKCYELTPFGKEVLELEYNRLQRSVRNGNSILGE	soluble
GSHMTAEADTSSELAKKSKEVFRKEMSQFIVQCLNPYRKPDCKVGRITTTEDFKHLARKLTHGVMNKELKYCKNPEDLECNENVKHKTKEYIKKYMQKFGAVYKPKEDTELE	soluble
QIIKDVVVWKTSLQDSDTPEKTLVFTATIKPGWHLYDQNLPEDGPTSTEFLFDKMTGAKLVGKAIPDKAPVNRYDKQFEMDLRWYEKTVSFRQKIQVTDPAKFSIKGGVRFMACNDENCLPPETSDFSFDASMIKSKAAAPDTEAEAAEAVAAETAADTTSQTDAAEALSSKADLWTPVVSELRAYGDDTLKQAESAPWKIFLYG	not soluble
SSLCEDMLLCNYRKCRIKLSGYAWVTACSHIFCDQHGSGEFSRSPAICPACNSTLSGKLDIVRTELSPSEEYKAMVLAGLRPEIVLDISSRALAFWTYQVHQERLYQEYNFSKAEGHLKQMEKIYTQQIQSKDVELTSMKGEVTSMKKVLEEYKKKFSDISEKLMERNRQYQKLQGLYDSLRLRNITIANHEGTLEPSMIAQSGVLGFPLGNNSKFPLDNTPVRNRGDGDGDFQFRPFFAGSPTAPEPSNSFFSFVSPSRELEQQQVSSRAFKVKRI	not soluble
MTIRVAINGFGRIGRNFLRCWFGRQNTDLEVVAINNTSDARTAAHLLEYDSVLGRFNADISYDENSITVNGKTMKIVCDRNPLNLPWKEWDIDLVIESTGVFVTAEGASKHIQAGAKKVLITAPGKAEGVGTYVIGVNDSEYRHEDFAVISNASCTTNCLAPVAKVLHDNFGIIKGTMTTTHSYTLDQRILDASHRDLRRARAAAVNIVPTTTGAAKAVALVIPELKGKLNGIALRVPTPNVSVVDLVVQVEKPTITEQVNEVLQKASQTTMKGIIKYSDLPLVSSDFRGTDESSIVDSSLTLVMDGDLVKVIAWYDNEWGYSQRVVDLAELAARKSGRLGLVQTLLISSQDSLPLTGGFFVAKREHPRSQDSINPSGPD	soluble
MHLLPELASHHAVSIPELLVSRDERQARQHVWLKRHPVPLVSFTVVAPGPIKDSEVTRRIFNHGVTALRALAAKQGWQIQEQAALVSASGPEGMLSIAAPARDLKLATIELEHSHPLGRLWDIDVLTPEGEILSRRDYSLPPRRCLLCEQSAAVCARGKTHQLTDLLNRMEALLNDVDACNVN	not soluble
MSLARTEKIYIYGASGHGLVCEDVAKNMGYKECIFLDDFKGMKFESTLPKYDFFIAIGNNEIRKKIYQKISENGFKIVNLIHKSALISPSAIVEENAGILIMPYVVINAKAKIEKGVILNTSSVIEHECVIGEFSHVSVGAKCAGNVKIGKNCFLGINSCVLPNLSLADDSILGGGATLVKNQDEKGVFVGVPAKRMEGGSHHHHHH	soluble
MLENYARFITAASAARNPSPIRTMTDILSRGPKSMISLAGGLPNPNMFPFKTAVITVENGKTIQFGEEMMKRALQYSPSAGIPELLSWLKQLQIKLHNPPTIHYPPSQGQMDLCVTSGSQQGLCKVFEMIINPGDNVLLDEPAYSGTLQSLHPLGCNIINVASDESGIVPDSLRDILSRWKPEDAKNPQKNTPKFLYTVPNGNNPTGNSLTSERKKEIYELARKYDFLIIEDDPYYFLQFNKFRVPTFLSMDVDGRVIRADSFSKIISSGLRIGFLTGPKPLIERVILHIQVSTLHPSTFNQLMISQLLHEWGEEGFMAHVDRVIDFYSNQKDAILAAADKWLTGLAEWHVPAAGMFLWIKVKGINDVKELIEEKAVKMGVLMLPGNAFYVDSSAPSPYLRASFSSASPEQMDVAFQVLAQLIKESL	soluble
MKKVLIKGAMALLLSSYSMIVSAEDKTITLMLDWFVNPNHGPVVVAQQKGYFKEEGLNITIQEPADPSMPAKLVAANNIDLAISYQTSLTIDVAAGLPLIRSATLIATPLNTLMVLDNGKINSLADLKGKKIGIAIAGNEEATIGTMLKTENVNFSDVNIINVGWALSSSLASGKVDAIWGGLRNFETNQLALEGYKAKSFFPEEHGVPSYDELVFVANAKTYDADALKKFNHAIEKATQFIVNHPEESWKTFISYAPDTLNNELNKRAWNDTLTRFALRPSAVDLQRYDRFSDFMYRHQMIKTQPKAQNFVPVL	not soluble
MLNDGEVTPSRHEILSMVKKHSKSLGKTSLDEQDASDVEMDSNFWHGVFDVYFVRCMESRRRQDDDLLFFVRKLSCKSYGLTENEDAPAPYFVRRWAPKLDELLGESLAEVDWRKSFYLNMIAHTSFTVTVAICSNEALKTYQGSKDTKLSPIYKVVKTVYASPSRVNFHLDSKKEVETTPAYPEICFAVDDFDSTFDAVVLTDKDHCYCVLLNSHDGAAFPSATVKDSSDSNTNADPRTVKDPKVTLFSGFVSYQMVREAYEGGRNRFGSLLSLGHITGKADRLYMRGPGGRGEVEVAVSGVVDQSQVVLGPVSPMSSKKSIDLGSIFRKAASVASVAAKHAIAAATASYDEDEMFPLKCCLMSISLPWDTIAHDLLFKATPPVNME	soluble
MPSGVDGVGLLVRWLIEGSRGGVTRARILMLLRERPRNAHQLSQELGLNYRTVLHHLEVLARHGLIARLYEGYGAPYALTNLAERHWSVIEDSIRRVGVRL	not soluble
HKDFTWNTTLSATWSKEKIDKLPDGDLISENLFTGEPIHAIYGYKYAGIWGSDTPKETLDAYGVNPGFIKIETVDKNGDGGVHKYSTDDRQILGHTNPDWIIGLNNSFTYKNFDLSVFAMARYGQTINSDLLGYYTAEQSVTKNQLAGVDYWTEDNQGAYFPRPGTGDEQKTVYPSLRVHDGSFIKIKNITLGYTLPANISRKVLMEKCRIYATAYNPFIFVKDKQLKDTDPETNGSDAFPTYRQFVFGVNLTF	not soluble
MSLDAELVDWELAVTTAKKLVRPGPQRSRAEADEIVSELRRLAVVAEGHVQDYTQLVPAGPPTPIAVVDRPEWVRSNVAGLRVATMPLIEKLSDQSRGRLAAAVGRRVTGVQVGSALAYLAGKVLGQFEVFLPPEEYEAGSAASAPSLAKPGAPTPVGRLSLVAPNIAHAEETLRVVPRDFRLWVCLHEQTHRSQFTAVPWLREHLESEIAAFIGATDLDPDVLADRLRSAVTALRSAVRDHGPDTPSVVEALQTPAQRAVLDRLQALMSLLEGHADQVMDAVGPQVVPTVADIRGKFDNRRSGGSPIDRFLRRLLGLDLKMQQYRQGGAFVRAVVAEVGVEGFNHVWQSPRTLPTRPELTDPGAWMLRVLGTREGHHHHHH	soluble
